These results are taken from patent US20210130454A1 (BLUEFIN BIOMEDICINE, published 2021).

Test [1] addresses T1, recombinant cynomolgus monkey SEZ6L2 (cynomolgus monkey, UniProt G7Q0V6 28-844).
T1 construct: The construct is not described; also called cynomolgus monkey SEZL2
Briefly: BLI (ForteBio Octet Red96), antibody on Protein A biosensors, recombinant target protein in solution.

Test [2] has as its target T2, recombinant human SEZ6L2 (extracellular portion of human SEZ6L2 fused to six C-terminal histidine-tag repeats) (human, UniProt Q6UXD5 28-844).
T2 construct: also called SEZ6L2-his; recombinant SEZ6L2
Described as above.

The target in test [3] is T3, human SEZ6L on cells (293-SEZ6L) (human, UniProt Q9BYH1 29-1024).
T3 construct: whole, on cells; also called Seizure 6-like Protein
T3 sequence (looked up): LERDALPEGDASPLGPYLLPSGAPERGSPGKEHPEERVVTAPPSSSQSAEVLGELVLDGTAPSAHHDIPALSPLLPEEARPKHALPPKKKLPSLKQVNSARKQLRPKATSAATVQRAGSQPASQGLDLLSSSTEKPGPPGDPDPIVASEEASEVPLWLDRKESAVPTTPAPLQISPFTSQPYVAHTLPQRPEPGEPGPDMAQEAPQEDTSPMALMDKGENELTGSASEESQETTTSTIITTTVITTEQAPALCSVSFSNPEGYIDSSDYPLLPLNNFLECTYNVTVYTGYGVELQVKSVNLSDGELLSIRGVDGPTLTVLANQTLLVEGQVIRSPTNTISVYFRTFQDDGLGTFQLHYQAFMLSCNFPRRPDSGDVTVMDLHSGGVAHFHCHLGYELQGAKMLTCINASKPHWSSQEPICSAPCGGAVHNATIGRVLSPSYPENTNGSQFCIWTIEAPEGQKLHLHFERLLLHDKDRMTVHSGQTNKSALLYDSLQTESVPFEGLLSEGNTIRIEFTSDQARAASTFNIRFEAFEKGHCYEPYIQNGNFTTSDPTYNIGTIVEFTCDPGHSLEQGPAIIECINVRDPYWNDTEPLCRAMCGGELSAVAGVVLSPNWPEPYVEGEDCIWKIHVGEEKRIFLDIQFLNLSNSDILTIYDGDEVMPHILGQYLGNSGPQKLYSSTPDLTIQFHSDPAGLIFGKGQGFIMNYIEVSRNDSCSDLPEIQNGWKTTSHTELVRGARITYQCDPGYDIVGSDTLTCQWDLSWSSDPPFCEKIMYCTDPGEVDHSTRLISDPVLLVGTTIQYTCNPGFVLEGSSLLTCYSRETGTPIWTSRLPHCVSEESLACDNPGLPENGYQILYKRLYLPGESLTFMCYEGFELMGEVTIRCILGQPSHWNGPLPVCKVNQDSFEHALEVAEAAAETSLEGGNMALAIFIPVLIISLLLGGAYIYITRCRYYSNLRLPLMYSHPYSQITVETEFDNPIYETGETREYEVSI
Briefly: flow cytometry on live 293-SEZ6L cells, Alexa Fluor 488 anti-human IgG secondary [continued), panel E].

Test [4] deals with T4, human SEZ6 on cells (293-SEZ6) (human, UniProt Q53EL9 20-994).
T4 construct: whole, on cells; also called Seizure Protein 6 Homolog
T4 sequence (looked up): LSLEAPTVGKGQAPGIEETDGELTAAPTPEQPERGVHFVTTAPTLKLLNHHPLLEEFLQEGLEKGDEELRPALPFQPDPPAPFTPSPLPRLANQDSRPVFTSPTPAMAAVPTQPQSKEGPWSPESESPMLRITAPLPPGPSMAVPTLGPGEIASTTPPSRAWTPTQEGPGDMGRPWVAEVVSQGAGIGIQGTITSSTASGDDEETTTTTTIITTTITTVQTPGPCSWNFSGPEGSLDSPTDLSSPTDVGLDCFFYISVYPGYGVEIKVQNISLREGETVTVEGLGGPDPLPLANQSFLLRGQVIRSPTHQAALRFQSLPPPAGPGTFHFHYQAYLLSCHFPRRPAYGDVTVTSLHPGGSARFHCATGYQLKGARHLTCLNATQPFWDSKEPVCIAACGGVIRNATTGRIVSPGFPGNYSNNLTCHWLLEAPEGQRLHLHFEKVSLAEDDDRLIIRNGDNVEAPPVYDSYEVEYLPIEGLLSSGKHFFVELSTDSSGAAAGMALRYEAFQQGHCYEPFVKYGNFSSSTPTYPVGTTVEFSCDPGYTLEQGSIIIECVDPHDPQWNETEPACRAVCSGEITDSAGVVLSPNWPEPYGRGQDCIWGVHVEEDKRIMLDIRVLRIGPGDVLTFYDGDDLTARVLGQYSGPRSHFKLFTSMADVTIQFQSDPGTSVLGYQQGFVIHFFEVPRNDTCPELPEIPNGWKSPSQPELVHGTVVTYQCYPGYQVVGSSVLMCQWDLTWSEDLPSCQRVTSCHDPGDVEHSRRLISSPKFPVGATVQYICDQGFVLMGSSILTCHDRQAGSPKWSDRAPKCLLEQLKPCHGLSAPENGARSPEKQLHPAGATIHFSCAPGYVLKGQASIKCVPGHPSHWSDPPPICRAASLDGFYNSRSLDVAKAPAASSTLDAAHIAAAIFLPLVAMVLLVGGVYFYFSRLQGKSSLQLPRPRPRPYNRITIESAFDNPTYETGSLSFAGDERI
Briefly: flow cytometry on live 293-SEZ6 cells, Alexa Fluor 488 anti-human IgG secondary [continued), panel E].

The target of test [5] is T3, human SEZ6L on cells (293-SEZ6L). The test can be described thus: flow cytometry on live 293-SEZ6L cells, Alexa Fluor 488 anti-human IgG secondary [continued), panel K].
Test [6] has as its target T4, human SEZ6 on cells (293-SEZ6). Briefly: flow cytometry on live 293-SEZ6 cells, Alexa Fluor 488 anti-human IgG secondary [continued), panel K].
In test [7] the target is T3, human SEZ6L on cells (293-SEZ6L). Briefly: flow cytometry on live 293-SEZ6L cells, Alexa Fluor 488 anti-human IgG secondary [panel C].
Test [8] addresses T4, human SEZ6 on cells (293-SEZ6). The test can be described thus: flow cytometry on live 293-SEZ6 cells, Alexa Fluor 488 anti-human IgG secondary [panel C].
For test [9], the target named is T3, human SEZ6L on cells (293-SEZ6L). Briefly: flow cytometry on live 293-SEZ6L cells, Alexa Fluor 488 anti-human IgG secondary [panel D].
Test [10] has as its target T4, human SEZ6 on cells (293-SEZ6). The test can be described thus: flow cytometry on live 293-SEZ6 cells, Alexa Fluor 488 anti-human IgG secondary [panel D].
Test [11] has as its target T3, human SEZ6L on cells (293-SEZ6L). Briefly: flow cytometry on live 293-SEZ6L cells, Alexa Fluor 488 anti-human IgG secondary [panel B].
The target of test [12] is T4, human SEZ6 on cells (293-SEZ6). Briefly: flow cytometry on live 293-SEZ6 cells, Alexa Fluor 488 anti-human IgG secondary [panel B].
The target in test [13] is T5, human SEZ6L2 on cells (293-SEZ6L2, HEK 293 cells transfected with human SEZ6L2, and SEZ6L2-expressing tumor … (human, UniProt Q6UXD5 28-910)).
T5 construct: Tumor cell lines express the endogenous protein; also called hSEZ6L2
T5 sequence (Q6UXD5 28-910): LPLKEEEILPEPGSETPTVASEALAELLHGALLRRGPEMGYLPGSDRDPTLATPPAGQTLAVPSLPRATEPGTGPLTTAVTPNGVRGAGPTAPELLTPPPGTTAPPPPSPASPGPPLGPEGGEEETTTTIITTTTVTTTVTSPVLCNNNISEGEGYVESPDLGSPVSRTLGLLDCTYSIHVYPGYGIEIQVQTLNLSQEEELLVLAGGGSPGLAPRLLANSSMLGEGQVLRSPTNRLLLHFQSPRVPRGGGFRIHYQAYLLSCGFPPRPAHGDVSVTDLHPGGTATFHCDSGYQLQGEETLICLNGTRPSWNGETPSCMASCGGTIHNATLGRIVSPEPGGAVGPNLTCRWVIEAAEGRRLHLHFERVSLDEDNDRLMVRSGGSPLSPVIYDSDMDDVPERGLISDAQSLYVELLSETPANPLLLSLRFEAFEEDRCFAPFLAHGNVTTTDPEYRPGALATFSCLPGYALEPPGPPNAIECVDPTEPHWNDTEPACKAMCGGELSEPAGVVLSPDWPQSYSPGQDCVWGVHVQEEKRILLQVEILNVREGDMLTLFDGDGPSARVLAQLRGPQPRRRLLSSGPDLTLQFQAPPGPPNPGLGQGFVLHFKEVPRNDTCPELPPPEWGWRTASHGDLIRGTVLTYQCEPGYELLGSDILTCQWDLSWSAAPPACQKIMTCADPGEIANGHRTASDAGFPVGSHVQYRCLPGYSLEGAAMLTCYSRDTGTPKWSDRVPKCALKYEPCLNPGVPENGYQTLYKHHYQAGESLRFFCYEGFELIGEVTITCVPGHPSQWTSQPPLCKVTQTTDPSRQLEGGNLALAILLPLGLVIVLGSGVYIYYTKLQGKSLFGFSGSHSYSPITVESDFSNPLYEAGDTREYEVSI
Briefly: flow cytometry on live 293-SEZ6L2 cells, primary antibody 1 ug/ml, Alexa Fluor 488 anti-human IgG secondary [panel B].

The target in test [14] is T3, human SEZ6L on cells (293-SEZ6L). Briefly: flow cytometry on live 293-SEZ6L cells, Alexa Fluor 488 anti-human IgG secondary [continued), panel J].
Test [15] addresses T4, human SEZ6 on cells (293-SEZ6). The test can be described thus: flow cytometry on live 293-SEZ6 cells, Alexa Fluor 488 anti-human IgG secondary [continued), panel J].
Test [16] deals with T3, human SEZ6L on cells (293-SEZ6L). Briefly: flow cytometry on live 293-SEZ6L cells, Alexa Fluor 488 anti-human IgG secondary [continued), panel L].
Test [17] has as its target T4, human SEZ6 on cells (293-SEZ6). The test can be described thus: flow cytometry on live 293-SEZ6 cells, Alexa Fluor 488 anti-human IgG secondary [continued), panel L].

T2 sequence (Q6UXD5 other isoform, or with tags, fused parts or gaps): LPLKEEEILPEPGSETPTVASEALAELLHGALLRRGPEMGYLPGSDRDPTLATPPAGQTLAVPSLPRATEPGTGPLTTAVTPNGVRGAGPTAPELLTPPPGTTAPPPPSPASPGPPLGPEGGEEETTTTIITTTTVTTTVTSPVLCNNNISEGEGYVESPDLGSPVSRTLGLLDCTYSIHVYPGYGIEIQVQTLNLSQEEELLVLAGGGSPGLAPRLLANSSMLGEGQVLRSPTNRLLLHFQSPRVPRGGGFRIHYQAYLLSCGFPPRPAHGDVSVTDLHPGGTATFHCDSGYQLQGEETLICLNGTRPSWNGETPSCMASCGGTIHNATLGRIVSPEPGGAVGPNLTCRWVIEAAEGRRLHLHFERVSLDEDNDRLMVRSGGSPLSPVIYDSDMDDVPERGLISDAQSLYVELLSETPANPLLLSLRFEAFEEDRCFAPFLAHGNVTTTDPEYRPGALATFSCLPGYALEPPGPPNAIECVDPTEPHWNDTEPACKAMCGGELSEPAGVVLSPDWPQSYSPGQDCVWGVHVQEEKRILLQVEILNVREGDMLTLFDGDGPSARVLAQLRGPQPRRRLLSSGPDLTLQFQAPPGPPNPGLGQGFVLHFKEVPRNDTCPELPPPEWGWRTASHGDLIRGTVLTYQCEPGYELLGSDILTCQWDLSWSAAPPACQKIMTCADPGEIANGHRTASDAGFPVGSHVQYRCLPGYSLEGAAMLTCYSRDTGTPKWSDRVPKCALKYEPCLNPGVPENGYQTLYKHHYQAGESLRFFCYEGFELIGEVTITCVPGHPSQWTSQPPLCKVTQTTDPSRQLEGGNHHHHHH

B1: human anti-SEZ6L2 antibody 3A3 (antibody, V domains shown)
VH: QVQLQESGPGLVKPSGTLSLTCAVSGGSISSSNWWSWVRQPPGKGLEWIGEIYHSGSTNYNPSLKSRVTISVDKSKNQFSLKLSSVTAADTAVYYCAAYSGSYFEYWGQGTLVTVSS
VL: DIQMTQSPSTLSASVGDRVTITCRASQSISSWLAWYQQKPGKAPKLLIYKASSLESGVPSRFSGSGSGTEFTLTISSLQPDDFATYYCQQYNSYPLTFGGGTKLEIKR
notes: Fully human antibody from H2L2 mice
On to B1, for which the Kd amounted to 26 nM in test [1] and 24 nM in [2]. In addition, the binding result in test [3] and in test [4] was “no binding (tested: 1 ug/ml)” in each case.

B2: humanized anti-SEZ6L2 antibody 16H8 (antibody, human IgG1, V domains shown)
VH: QIQLVQPGAEVKKPGASVKVSCKASGYTFTSYWMYWVRQAPGQGLEWMGAIYPRDSDTSYNQKFKGRVTMTRVTSTSTVYMELSSLRSEDTAVYYCTRGDYYYGSSYYAMDYWGQGTTVTVSS
VL: DIVMTQSPLSLPVTPGEPASISCSSSKSLLHSNGITYLYWYLQKPGQSPQLLIYRMSNLASGVPDRFSGSGSGTDFTLKISRVEAEDVGVYYCAQMLERPYTFGQGTKVEIKR
notes: Humanized from mu16H8; also called 16H8:A3F5
On to B2, for which the Kd in test [2] is 2 nM. In addition, the binding result in test [5] and in test [6] was “no binding (tested: 1 ug/ml)” throughout.

B3: human anti-SEZ6L2 antibody 3A1 (antibody, V domains shown)
VH: QVQLVQSGAEVKKPGASVKVSCKASGFTFTGYYILWMRQAPGQGLEWMGWINPNNGGTHYAQKFQGRVTMTRDTSISTAYMELSRLRSDDTAVYYCARDSGHDWYFDLWGRGTLVTVSS
VL: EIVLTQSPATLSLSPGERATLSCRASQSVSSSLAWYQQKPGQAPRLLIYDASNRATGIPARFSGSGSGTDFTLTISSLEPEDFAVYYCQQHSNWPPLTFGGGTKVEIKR
notes: Fully human antibody from H2L2 mice; it was captured on Protein A and detected with anti-human IgG
Turning to B3, the Kd in test [1] and in test [2] was 0.3 nM throughout. Moreover, the binding result in test [7] and in test [8] was “no binding (tested: 1 ug/ml)” in each case.

B4: human anti-SEZ6L2 antibody 3A2 (antibody, V domains shown)
VH: QVQLQESGPGLVKPSGTLSLTCAVSGGSISSYHWWSWVRQPPGKGLEWIGEIYHSGSTNYNPSLKSRVTISVDKSKNQFSLKLSSVTAADTAVYYCARWGRIAVADYWGQGTLVTVSS
VL: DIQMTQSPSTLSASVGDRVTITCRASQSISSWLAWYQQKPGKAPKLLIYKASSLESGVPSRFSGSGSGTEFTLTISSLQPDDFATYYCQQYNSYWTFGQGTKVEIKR
notes: as for B1
On to B4, for which the Kd in test [1] and in [2] was 3 nM throughout. Besides, the binding result in [9] and in [10] was “no binding (tested: 1 ug/ml)” each time.

B5: human anti-SEZ6L2 antibody 1C6 (antibody, V domains shown)
VH: QVQLQESGPGLVKPSETLSLTCTVSGGSISSYYWSWIRQPPGKGLEWIGYIYNSGSTNYNPSLKSRVTISVDTSKNQFSLKLSSVTAADTAVYYCARRGDQGYWYFDLWGRGTLVTVSS
VL: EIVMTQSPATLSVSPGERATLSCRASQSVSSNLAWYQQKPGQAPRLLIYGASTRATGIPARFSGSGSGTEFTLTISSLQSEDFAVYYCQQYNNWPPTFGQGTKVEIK
notes: also called 106
In the case of B5, the values for the binding result in [11], in test [12] and in test [13] were “no binding (tested: 1 ug/ml)”, “no binding (tested: 1 ug/ml)” and “binds”, respectively.

B6: humanized anti-SEZ6L2 antibody 3E2 (antibody, human IgG1, V domains shown)
VH: EVQLVESGGGLVQPGGSLKLSCAASGFSFNTITMNWVRQASGKGLEWVGRIRSKSNNYATYYADAVKDRFTISRDDSKNTAYLQMNSLKTEDTAVYYCVRGIFSGYVYAMDYWGQGTLVTVSS
VL: DVVMTQSPLSLPVTVGQPASISCRSSQSIVHSNGNTYLEWFQQRPGQSPRVLIYKVSNRFSGVPDRFSGSGSGTDFTLKISRVEAEDVGVYYCFQGSHVPYTFGGGTKLEIKR
notes: also called 3E2:7D4
As for B6, the Kd in test [1] and in test [2] was 2 nM in each case. Also, the binding result in [14] and in test [15] was “no binding (tested: 1 ug/ml)” each time.

B7: humanized anti-SEZ6L2 antibody 20C4 (antibody, human IgG1, V domains shown)
VH: EVQLVESGGGLVQPGGSLRLSCAASGFTFTDYYMSWVRQAPGKGLEWVALIRNKANGYTTEYSASVKGRFTISRDNSKNSLYLQMNSLRAEDTAVYYCARNGLYGLFAYWGQGTLVTVSS
VL: DIVMTQTPLSIPVTPGEPASISCRSSTSLLESSGKHRLYWYLQKPGQSPQLLIYYMSNLASGVPDRFSGSGSGTDFTLKISRVEAEDFGVYYCMQSLEYPLTFGAGTKVEIKR
notes: also called 20C4:red
On to B7, for which the Kd in test [1] and in test [2] was 3 nM each time. Moreover, the binding result in [16] and in test [17] was “no binding (tested: 1 ug/ml)” each time.
